The results in this text go back to patent US10350264B2, “Compositions and methods for modulating NCOA4-mediated autophagic targeting of ferritin” (Dana-Farber Cancer Institute, Inc., priority 2014, dated 2019).

One series relates to 8988T and U2OS cells. Kind of series: chelation assay, ferritin degradation by FTH1 immunoblot. Format: cell-based, human. Particulars: FAC loading then chelators (DFO, BPS, DFP); FIG. 3(a)-(b), FIG. 19. Here is the method: Chelation assays were performed similarly to those previously described with slight modifications [Asano et al., supra]. Briefly, U2OS and 8988T cells stably expressing shRNAs as described above (shGFP, shNCOA4-1, shNCOA4-2, selected with puromycin) were plated (2×10^5 cells/well) and cultured for 24 hours in FAC (36 μM or 180 μM). Cells were washed three times with PBS and subjected to iron chelation with the described chelators minus or plus lysosomal protease inhibitors (E-64d and PepstatinA) or the proteasomal inhibitor, Bortezomib. Cells were harvested at the indicated time points, washed with PBS, and lysed in 50 mM Tris-HCl (pH 7.4), 150 mM NaCl, 1% Nonidet P40, 0.1% SDS, 2 mM EDTA, 2 mM DTT, protease inhibitors and analyzed by 4-20% gradient SDS-PAGE followed by immunoblotting with the indicated antibodies. Experiments were performed at a minimum in biological triplicate. Quantitation of Western blots was performed using ImageJ [Schneider, C. A., et al. Nature Methods 9, 671-675 (2012)]. Cells were treated similarly for immunofluorescence experiments (including IMR90 and HPDE cells). Cells plated on glass coverslips were treated as described and fixed with 4% paraformaldehyde prior to immunofluorescence using anti-ferritin and anti-LAMP2. Data were collected as described above.

The subject of another series is PANC1 cells. Briefly: autophagosome formation, fluorescence microscopy of cells expressing GFP-MAP1LC3B. Format: cell-based, human. As to conditions: Wortmannin 200 nM 1 h, chloroquine 25 μM 4 h, FIG. 13(b).
The next series concerns 8988T cells. Briefly: NCOA4 protein levels while blocking autophagic flux (immunoblot). The format is cell-based, human. As to conditions: CQ or BAF 8 hours, FIG. 2(c). In general terms: A western blot detects proteins with antibodies after separation by electrophoresis.
The next series deals with T1, NCOA4(aa 383-522)-GST (Homo sapiens, UniProt Q13772).
T1 construct: NCOA4(aa 383-522)-GST or GST alone was incubated with; made in house; host or cells: E. coli BL21 (DE3)
T1 sequence (Q13772 383-522): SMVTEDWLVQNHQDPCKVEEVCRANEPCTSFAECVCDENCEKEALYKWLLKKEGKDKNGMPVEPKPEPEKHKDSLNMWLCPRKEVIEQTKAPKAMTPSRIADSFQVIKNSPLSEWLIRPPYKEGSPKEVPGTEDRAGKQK
Briefly: GST pull-down assay of WT and point mutant FTH1 using NCOA4(aa 383-522)-GST. Particulars: 40 μg FTH1, InstantBlue stain; FIGS. 23A-D. Format: binding.

Another series concerns FTH1. Kind of series: IVT-based interaction experiment with His-GST-HA tagged NCOA4 constructs and GST pull-down. The format is binding. Particulars: equal load of fragments; FIG. 9.
Series [1] deals with T2, apo-ferritin purified from equine spleen (Equus caballus, UniProt Q8MIP0).
T2 construct: apo-ferritin purified from equine spleen; purchased Sigma F4503; host or cells: equine spleen
T2 sequence (Q8MIP0 whole entry): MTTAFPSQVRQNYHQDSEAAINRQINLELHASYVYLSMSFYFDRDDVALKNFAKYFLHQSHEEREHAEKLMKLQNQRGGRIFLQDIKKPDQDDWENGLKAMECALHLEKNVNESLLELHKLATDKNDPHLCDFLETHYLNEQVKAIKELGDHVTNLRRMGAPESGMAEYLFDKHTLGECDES
T2 sequence (P02791 2-175 partner limits assumed): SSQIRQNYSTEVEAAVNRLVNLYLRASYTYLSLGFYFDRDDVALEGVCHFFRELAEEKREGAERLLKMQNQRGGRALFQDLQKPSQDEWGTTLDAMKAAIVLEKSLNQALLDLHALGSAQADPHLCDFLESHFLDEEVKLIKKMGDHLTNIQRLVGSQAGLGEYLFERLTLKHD
Kind of series: GST pull-down assay of ferritin using GST-NCOA4 fragments. The format is binding. As to conditions: anti-FTH1 immunoblot. From the text: GST-tagged NCOA4 constructs were also made to probe the interactions of C-terminal portions of NCOA4 with ferritin. NCOA4-truncation constructs were produced using Gateway cloning (Invitrogen, Life Technologies, catalog #11789-013 and 11791-019) into a pDEST60 N-terminal GST fusion plasmid (GST-NCOA4) from EMD Millipore (Gateway Nova pET-60-DEST, product #71851-3) and transformed in E. coli BL21 (DE3) cells (New England Biosciences, C2527I).
NCOA4 truncation constructs were designed based on NCBI reference sequence: NP_001138735.1 (SEQ ID NO: 4). In particular, fragments of SEQ ID NO: 4 consisting of amino acids (aa) 1-245, aa 235-614, aa 235-560, aa 235-401, aa 383-560, aa 545-614, aa 383-522, aa 510-560, aa 383-436, aa 436-485, aa 475-522, aa 475-500, aa 480-500, aa 480-504, aa 485-509, aa 490-514, aa 495-522 were designed. Protein expression in the DE3 cells was induced with 1 mM isopropyl-beta-D-thiogalactopyranoside (IPTG) (Sigma, I6758-10 G) for 3 hours at 37° C. Cells were collected by centrifugation, re-suspended in 25 mM Tris-HCl (pH 7.4), 10% (w/v) sucrose and lysed with a single freeze-thaw cycle followed by sonication. After centrifugation, a GST pull-down assay was performed.
In the GST pull-down assay, lysates were incubated with 10 μl of a 50% (v/v) slurry of glutathione Sepharose 4B beads (GE Healthcare Lifesciences, 17-0756-01) for 30 minutes at 4° C. Beads were washed thoroughly with 150 mM NaCl, 20 mM Tris (pH 7.4), 2 mM dithiothreitol (DTT), 0.5% (w/v) Nonidet P-40, leaving 50-100 μg of GST-fusion protein bound to the beads. Beads were then mixed with 0.5-2 μg of apo-ferritin purified from equine spleen (Sigma F4503) or recombinant human FTH1 or FTL produced in Rosetta E. coli (EMD Millipore, 70953-3). The assay mix was incubated for 2 hours at 4° C., and beads were washed four times with 1 ml wash buffer. Proteins were eluted with SDS sample buffer and analyzed by 4-20% gradient SDS-PAGE and immunoblotting with anti-FTH1 antibody (as above) or anti-FLAG antibody (Sigma, F1804-200 UG). Pounceau stain was used to visualize GST-NCOA4 bands. (Pounceau, Sigma, P7170-1 L, protocol as per product manual).

For series [2], the target named is T3, HERC2-FLAG fragment (F3, HERC2 amino acids 1700-2700) (Homo sapiens, UniProt O95714).
T3 construct: HERC2-FLAG fragment (F3, HERC2 amino acids 1700-2700) was produced as described in Bekker-Jensen et al; expressed in transfected cells; host or cells: 293T cells (transient transfection, lysate used)
T3 sequence (O95714 1700-2700): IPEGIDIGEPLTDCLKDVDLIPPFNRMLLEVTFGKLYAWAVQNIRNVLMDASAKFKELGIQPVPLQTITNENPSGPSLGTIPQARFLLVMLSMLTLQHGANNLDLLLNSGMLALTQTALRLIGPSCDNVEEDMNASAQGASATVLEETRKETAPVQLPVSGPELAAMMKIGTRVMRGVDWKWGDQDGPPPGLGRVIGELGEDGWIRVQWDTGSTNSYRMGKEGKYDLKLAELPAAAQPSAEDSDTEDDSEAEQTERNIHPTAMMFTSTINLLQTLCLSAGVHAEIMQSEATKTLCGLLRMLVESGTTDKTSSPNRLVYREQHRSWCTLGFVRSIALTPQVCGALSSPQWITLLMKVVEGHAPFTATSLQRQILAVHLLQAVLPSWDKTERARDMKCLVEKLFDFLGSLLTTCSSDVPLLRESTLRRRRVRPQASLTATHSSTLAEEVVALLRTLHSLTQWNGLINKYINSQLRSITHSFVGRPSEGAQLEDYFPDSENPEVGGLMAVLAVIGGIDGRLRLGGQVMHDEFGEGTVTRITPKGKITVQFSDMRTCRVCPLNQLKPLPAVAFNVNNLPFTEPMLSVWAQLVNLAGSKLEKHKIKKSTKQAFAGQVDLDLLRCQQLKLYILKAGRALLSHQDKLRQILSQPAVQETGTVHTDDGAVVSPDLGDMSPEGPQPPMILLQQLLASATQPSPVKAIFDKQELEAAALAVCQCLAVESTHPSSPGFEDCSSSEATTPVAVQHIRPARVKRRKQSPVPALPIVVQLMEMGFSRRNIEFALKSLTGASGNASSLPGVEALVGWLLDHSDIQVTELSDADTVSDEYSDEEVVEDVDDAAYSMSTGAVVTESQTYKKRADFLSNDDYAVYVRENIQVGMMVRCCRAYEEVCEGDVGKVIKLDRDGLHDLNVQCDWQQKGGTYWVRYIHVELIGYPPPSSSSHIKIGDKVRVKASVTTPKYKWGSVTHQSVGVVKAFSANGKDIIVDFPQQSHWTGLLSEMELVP
Briefly: GST pull-down assay of HERC2-FLAG Fragment 3 using GST-NCOA4 fragments. Format: binding. As to conditions: 293T lysate expressing HERC2-FLAG F3, anti-FLAG immunoblot; FIG. 12. The method, then:
To map the interaction of NCOA-4 with HERC2, the GST-NCOA4 truncation constructs described above were also tested in a GST pull-down assay with HERC2-FLAG expressing 293T cell line. HERC2-FLAG fragment (F3, HERC2 amino acids 1700-2700) was produced as described in Bekker-Jensen et al., Nature Cell Biology (2010) 12; 80-86. The HERC2-FLAG F3 was transiently transfected into 293T cells using standard transfection procedures using PEI (Polysciences, #23966-2).
Lysates were obtained, as above, and incubated with 10 μl of a 50% (v/v) slurry of glutathione Sepharose 4B beads for 30 minutes at 4° C. Beads were washed thoroughly with 150 mM NaCl, 20 mM Tris (pH 7.4), 2 mM DTT, 0.5% (w/v) Nonidet P-40, leaving 50-100 μg of GST-fusion protein bound to the beads. Beads were then mixed with 300 μg of lysate from a HERC2-FLAG expressing 293T cell line, as above. The assay mix was incubated for 2 hours at 4° C., and beads were washed four times with 1 ml wash buffer. Proteins were eluted with SDS sample buffer and analyzed by 4-20% gradient SDS-PAGE and immunoblotting with anti-HERC2 antibody or anti-FLAG antibody, as above. Coomassie stain was used to visualize GST-NCOA4 bands as above.

“Also recorded” adds a separate entry of the source.

Procedure for NCOA4(aa 383-522)-GST: Beads were washed thoroughly with 150 mM NaCl, 20 mM Tris (pH 7.4), 2 mM dithiothreitol (DTT), 0.5% (w/v) Nonidet P-40, leaving 50-100 μg of GST-fusion protein bound to the beads. Beads were then mixed with 40 μg of recombinant human WT or point mutant FTH1 produced in Rosetta E. coli (EMD Millipore, 70953-3). The assay mix was incubated for 30 minutes at 4° C., and beads were washed three times with 1 ml wash buffer. Proteins were eluted with SDS sample buffer and analyzed by 4-20% gradient SDS-PAGE. InstantBlue Stain (Expedeon: catalog #ISB1L) was used to visualize GST-NCOA4 bands and FTH1 bands.

In the case of “5′ CCCAGGAAGTATTACTTAATT 3′ (expressed or natural sequence) [shNCOA4-1]”, the “ferritin degradation in response to iron chelation” value in the series on 8988T and U2OS cells is recorded as “rescued ferritin degradation”.
Same read-out and setting: then “5′ GCTGGCAAACAGAAGTTTAAA 3′ (expressed or natural sequence) [shNCOA4-2]”, with “rescued ferritin degradation”.
Turning to `CCN(CC)CCCC(C)Nc1ccnc2cc(Cl)ccc12` (centres unmarked) [chloroquine, Chloroquine], the effect on autophagosomes entry with PANC1 cells is “caused accumulation of autophagosomes”. Moreover, in the series with 8988T cells, the NCOA4 protein levels entry was “markedly increased”.
For “FTH1 R23A point mutant: recombinant human ferritin heavy chain with R23A point mutation, produced in E. coli”, the “binding of FTH1 (WT or point mutant) to NCOA4(383-522)-GST” value with NCOA4(aa 383-522)-GST was “bound only very weakly”.
In the case of “KAMTPSRIADSFQVIKNSPLSEWLIRPPYKEGSPKEVPGTEDRAGKQK (Homo sapien) [aa 475-522]”, in the series with FTH1, the “pull-down of FTH1 by IVT GST-NCOA4 fragment” value is reported as “equally pulled down (bound to) FTH1”. Also, the “binding of GST-NCOA4 fragment to ferritin” value in series [1] (FIGS. 7, 8, 11) is on record as “interacted with ferritin; also recorded: bound to ferritin”; in series [1] (FIGS. 7, 8, 11, listed as amino acids 475-522) it was “bind to ferritin”.

B1: aa 383-522: fragment of NCOA4 SEQ ID NO: 4 (protein)
chain: T1 sequence (Q13772 383-522)
modifications: GST tag; Homo sapien
Consider B1, for which the “pull-down of FTH1 by IVT GST-NCOA4 fragment” value in the series on FTH1 was “equally pulled down (bound to) FTH1”. The “binding of GST-NCOA4 fragment to HERC2-FLAG” value in series [2] was “bound to HERC2-FLAG”. Further, the “binding of GST-NCOA4 fragment to ferritin” value in series [1] (FIGS. 7, 8, 11) is “bind to ferritin”.
